These sequences were tested on Escherichia coli TOP10 (assay: shrunken log2 fold change of peptide-encoding DNA abundance (4.5 h post-induction vs induction); higher = less antimicrobial activity (less host growth inhibition)). Conditions: time post-induction: 4.5 h; library: site-saturation at positions 5, 18, 19, 20.
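Also: peptides expressed intracellularly from a pBAD plasmid library in pooled LB shake-flask culture, induced with 0.3% L-arabinose, DNA abundance read by NGS, three biological replicates, DESeq2 with apeglm shrinkage.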

Row | Sequence | shrunken log2 fold change
1 | RRIRYRPPRLPRPRPRPERYPRP | 0.11
2 | RRIRSRPPRLPRPRPRPISKPRP | -0.211
3 | RRIRVRPPRLPRPRPRPEHEPRP | -0.12
4 | RRIRGRPPRLPRPRPRPQGRPRP | 0.553
5 | RRIRNRPPRLPRPRPRPEVRPRP | 0.292
6 | RRIRQRPPRLPRPRPRPRYEPRP | -0.349
7 | RRIRARPPRLPRPRPRPDFRPRP | 0.0149
8 | RRIRQRPPRLPRPRPRPHEGPRP | -0.0113
9 | RRIRPRPPRLPRPRPRPWEKPRP | -0.106
10 | RRIRTRPPRLPRPRPRPIWPPRP | 0.173
11 | RRIRGRPPRLPRPRPRPHFYPRP | 0.324
12 | RRIRKRPPRLPRPRPRPHVVPRP | -0.183
13 | RRIRQRPPRLPRPRPRPAYTPRP | 0.0569
14 | RRIRDRPPRLPRPRPRPMFRPRP | -0.114
15 | RRIRWRPPRLPRPRPRPADWPRP | 0.345
16 | RRIRVRPPRLPRPRPRPVYCPRP | -0.482
17 | RRIRPRPPRLPRPRPRPFCCPRP | 0.0801
18 | RRIRDRPPRLPRPRPRPQKLPRP | -0.307
19 | RRIRERPPRLPRPRPRPKFIPRP | -0.144
20 | RRIRLRPPRLPRPRPRPCGCPRP | 0.282
21 | RRIRIRPPRLPRPRPRPLPTPRP | 0.0405
22 | RRIRHRPPRLPRPRPRPLRWPRP | 0.3
23 | RRIRHRPPRLPRPRPRPGMDPRP | -0.0518
24 | RRIRVRPPRLPRPRPRPYCSPRP | -0.0744
25 | RRIRTRPPRLPRPRPRPTFKPRP | -0.227

Row | Sequence | shrunken log2 fold change
26 | RRIRYRPPRLPRPRPRPDMHPRP | -0.231
27 | RRIRMRPPRLPRPRPRPTERPRP | 0.582
28 | RRIRGRPPRLPRPRPRPITHPRP | 0.0909
29 | RRIRVRPPRLPRPRPRPDWQPRP | 0.0968
30 | RRIRHRPPRLPRPRPRPVWVPRP | -0.0634
31 | RRIRARPPRLPRPRPRPEMDPRP | 0.41
32 | RRIRNRPPRLPRPRPRPGCMPRP | 0.0522
33 | RRIRWRPPRLPRPRPRPPAEPRP | 2.93
34 | RRIRARPPRLPRPRPRPHWMPRP | 0.0379
35 | RRIRNRPPRLPRPRPRPPINPRP | -0.186
36 | RRIRPRPPRLPRPRPRPCEVPRP | 0.00799
37 | RRIRQRPPRLPRPRPRPNEYPRP | -1.18
38 | RRIRMRPPRLPRPRPRPCHIPRP | -0.0247
39 | RRIRHRPPRLPRPRPRPNATPRP | 0.255
40 | RRIRFRPPRLPRPRPRPTDGPRP | 0.0745
41 | RRIRLRPPRLPRPRPRPGMHPRP | 0.299
42 | RRIRERPPRLPRPRPRPHQVPRP | -0.0847
43 | RRIRPRPPRLPRPRPRPNFSPRP | 1.08
44 | RRIRARPPRLPRPRPRPYDCPRP | -0.131
45 | RRIRDRPPRLPRPRPRPATEPRP | 0.646
46 | RRIRFRPPRLPRPRPRPTEMPRP | -0.105
47 | RRIRGRPPRLPRPRPRPSPAPRP | 0.901
48 | RRIRPRPPRLPRPRPRPGIMPRP | -0.2
49 | RRIRARPPRLPRPRPRPVRRPRP | 0.723
50 | RRIRFRPPRLPRPRPRPNNPPRP | -0.625

Row | Sequence | shrunken log2 fold change
51 | RRIRQRPPRLPRPRPRPARNPRP | 0.298
52 | RRIRARPPRLPRPRPRPSSGPRP | 0.412
53 | RRIRARPPRLPRPRPRPAVLPRP | 0.549
54 | RRIRTRPPRLPRPRPRPRHCPRP | -0.0723
55 | RRIRYRPPRLPRPRPRPSNIPRP | -1.25
56 | RRIRHRPPRLPRPRPRPEMIPRP | 0.0986
57 | RRIRCRPPRLPRPRPRPKLLPRP | -0.172
58 | RRIRNRPPRLPRPRPRPFNFPRP | 0.125
59 | RRIRLRPPRLPRPRPRPGYGPRP | 0.0339
60 | RRIRCRPPRLPRPRPRPAEDPRP | 0.213
61 | RRIRRRPPRLPRPRPRPQMPPRP | 0.283
62 | RRIRMRPPRLPRPRPRPVCEPRP | 0.353
63 | RRIRHRPPRLPRPRPRPWAQPRP | 0.0333
64 | RRIRKRPPRLPRPRPRPTASPRP | 0.783
65 | RRIRNRPPRLPRPRPRPSIMPRP | -0.611
66 | RRIRRRPPRLPRPRPRPKGQPRP | 0.176
67 | RRIRDRPPRLPRPRPRPLDVPRP | -0.0992
68 | RRIRCRPPRLPRPRPRPANAPRP | -0.0408
69 | RRIRARPPRLPRPRPRPWRAPRP | 0.338
70 | RRIRPRPPRLPRPRPRPRIAPRP | 0.451
71 | RRIRWRPPRLPRPRPRPSSRPRP | 0.188
72 | RRIRFRPPRLPRPRPRPPNDPRP | 0.273
73 | RRIRRRPPRLPRPRPRPPFKPRP | 0.321
74 | RRIRGRPPRLPRPRPRPVTAPRP | 0.74
75 | RRIRERPPRLPRPRPRPHVSPRP | -0.0346

Row | Sequence | shrunken log2 fold change
76 | RRIRMRPPRLPRPRPRPSIGPRP | -0.00737
77 | RRIRARPPRLPRPRPRPFHSPRP | -0.217
78 | RRIRVRPPRLPRPRPRPGHEPRP | -0.0501
79 | RRIRARPPRLPRPRPRPYKWPRP | -0.393
80 | RRIRERPPRLPRPRPRPECCPRP | 0.066
81 | RRIRFRPPRLPRPRPRPAALPRP | -0.0867
82 | RRIRKRPPRLPRPRPRPPWLPRP | 0.574
83 | RRIRLRPPRLPRPRPRPQFTPRP | -0.324
84 | RRIRFRPPRLPRPRPRPIVIPRP | -0.205
85 | RRIRVRPPRLPRPRPRPSWFPRP | -0.262
86 | RRIRVRPPRLPRPRPRPPWHPRP | 0.164
87 | RRIRNRPPRLPRPRPRPWCRPRP | -0.525
88 | RRIRMRPPRLPRPRPRPTHTPRP | 1.03
89 | RRIRERPPRLPRPRPRPLVFPRP | -0.153
90 | RRIRDRPPRLPRPRPRPIWAPRP | -0.0982
91 | RRIRLRPPRLPRPRPRPEFGPRP | 0.07
92 | RRIRPRPPRLPRPRPRPVNMPRP | 0.0158
93 | RRIRMRPPRLPRPRPRPRHVPRP | 0.437
94 | RRIRWRPPRLPRPRPRPDNLPRP | -0.188
95 | RRIRPRPPRLPRPRPRPGWCPRP | 0.072
96 | RRIRDRPPRLPRPRPRPLNQPRP | -0.009
97 | RRIRWRPPRLPRPRPRPTGHPRP | 0.317
98 | RRIRGRPPRLPRPRPRPMAKPRP | 0.658
99 | RRIRHRPPRLPRPRPRPYRAPRP | -0.258
100 | RRIRIRPPRLPRPRPRPIFGPRP | -0.164

Row | Sequence | shrunken log2 fold change
101 | RRIRGRPPRLPRPRPRPGDTPRP | 0.616
102 | RRIRWRPPRLPRPRPRPGKWPRP | 0.202
103 | RRIRCRPPRLPRPRPRPVKAPRP | 0.0593
104 | RRIRGRPPRLPRPRPRPEIFPRP | 1.02
105 | RRIRWRPPRLPRPRPRPSYTPRP | -0.656
106 | RRIRKRPPRLPRPRPRPQANPRP | 0.066
107 | RRIRYRPPRLPRPRPRPWGTPRP | -0.0285
108 | RRIRNRPPRLPRPRPRPIYNPRP | -0.642
109 | RRIRTRPPRLPRPRPRPHDYPRP | -0.196
110 | RRIRWRPPRLPRPRPRPNCTPRP | 0.0251
111 | RRIRERPPRLPRPRPRPHFLPRP | -0.458
112 | RRIRIRPPRLPRPRPRPNWKPRP | -0.00224
113 | RRIRYRPPRLPRPRPRPNFQPRP | -0.578
114 | RRIRTRPPRLPRPRPRPMNHPRP | -0.0849
115 | RRIRWRPPRLPRPRPRPCFPPRP | -0.164
116 | RRIRMRPPRLPRPRPRPFFCPRP | 0.0186
117 | RRIRCRPPRLPRPRPRPAVDPRP | 0.449
118 | RRIRRRPPRLPRPRPRPVCHPRP | -0.0349
119 | RRIRHRPPRLPRPRPRPNAWPRP | 0.341
120 | RRIRKRPPRLPRPRPRPVAMPRP | 1.67
121 | RRIRYRPPRLPRPRPRPQPNPRP | -0.226
122 | RRIRGRPPRLPRPRPRPLTEPRP | 1.22
123 | RRIRARPPRLPRPRPRPNWLPRP | 0.275
124 | RRIRIRPPRLPRPRPRPQLVPRP | -0.163
125 | RRIRYRPPRLPRPRPRPCAIPRP | -0.0633

Reference: the supplement of paper PMC9112550, “Optimization of the antimicrobial peptide Bac7 by deep mutational scanning” (BMC Biology, 2022)
